In patent US20180340025A1 (Novartis, published 2018):

T1: human LAG-3 expressed on cells (human, UniProt P18627 23-525)
T1 construct: whole, on cells; Treated as one protein; the host cell is named under assay; also called LAG-3-expressing CHO cells; LAG-3-transfected CHO cells
T1 sequence (looked up): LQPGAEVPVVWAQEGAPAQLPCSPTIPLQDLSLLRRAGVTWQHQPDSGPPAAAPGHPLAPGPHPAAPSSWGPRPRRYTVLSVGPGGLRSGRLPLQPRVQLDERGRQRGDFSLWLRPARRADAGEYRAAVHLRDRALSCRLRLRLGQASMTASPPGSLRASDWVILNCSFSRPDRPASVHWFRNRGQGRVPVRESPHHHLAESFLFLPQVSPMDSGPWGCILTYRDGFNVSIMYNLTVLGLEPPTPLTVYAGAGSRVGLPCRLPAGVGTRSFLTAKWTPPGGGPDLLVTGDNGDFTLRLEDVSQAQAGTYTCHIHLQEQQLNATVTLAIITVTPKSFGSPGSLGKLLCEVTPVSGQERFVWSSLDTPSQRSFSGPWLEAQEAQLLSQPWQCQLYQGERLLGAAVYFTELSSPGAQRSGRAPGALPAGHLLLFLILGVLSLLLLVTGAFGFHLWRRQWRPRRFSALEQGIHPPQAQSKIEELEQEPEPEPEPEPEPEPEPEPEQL


How the values were obtained:
[1] = target: T1, human LAG-3 expressed on cells; assay: rank of the clone among the humanized clones by the FACS binding data on LAG-3-expressing cells
[2] = target: T1, human LAG-3 expressed on cells; assay: rank of the clone by the competition binding data (test mAb against FITC-labeled murine BAP050 on LAG-3-expressing CHO cells), curve position relative to the chimeric mAb in two experiments
Experimental: Incubations with the mAb mixtures having different concentration ratios of test mAb to labeled mAb was at 4° C. for 30 min. […] The experiment was performed twice.
Such a ranking system was used in FIG. 6.

| Binder | Ranking, Binding data [1] | Ranking, Compet. data [2] |
| --- | --- | --- |
| BAP050-hum06 (antibody, human IgG4 S228P, kappa, V domains shown, humanized IgG4(S228P)/kappa, transient CHO supernatant) VH: EVQLVQSGAEVKKPGATVKISCKVSGFTLTNYGMNWVRQAPGQGLEWMGWINTDTGEPTYADDFKGRFVFSLDTSVSTAYLQICSLKAEDTAVYYCARNPPYYYGTNNAEAMDYWGQGTTVTVSS VL: DIVMTQTPLSLPVTPGEPASISCSSSQDISNYLNWYQQKPGQAPRLLIYYTSTLHLGVPSRFSGSGSGTEFTLTISSLQPDDFATYYCQQYYNLPWTFGQGTKVEIKR | 9 | 1 |
| BAP050-hum02 (antibody, human IgG4 S228P, kappa, V domains shown, humanized IgG4(S228P)/kappa, transient CHO supernatant; also called humanized clone No. 02) VH: EVQLVQSGAEVKKPGATVKISCKVSGFTLTNYGMNWVRQAPGQGLEWMGWINTDTGEPTYADDFKGRFVFSLDTSVSTAYLQICSLKAEDTAVYYCARNPPYYYGTNNAEAMDYWGQGTTVTVSS VL: DIQMTQSPSSLSASVGDRVTITCSSSQDISNYLNWYQQKPGKAPKLLIYYTSTLHLGIPPRFSGSGYGTDFTLTINNIESEDAAYYFCQQYYNLPWTFGQGTKVEIKR | 5 | 1 |
| BAP050-hum05 (antibody, human IgG4 S228P, kappa, humanized IgG4(S228P)/kappa, transient CHO supernatant; also called humanized clone No. 05) heavy: not shown light: EIVLTQSPATLSLSPGERATLSCSSSQDISNYLNWYQQKPGKAPKLLIYYTSTLHLGVPSRFSGSGSGTDFTFTISSLEAEDAATYYCQQYYNLPWTFGQGTKVEIKRTVAAPSVFIFPPSDEQLKSGTASVVCLLNNFYPREAKVQWKVDNALQSGNSQESVTEQDSKDSTYSLSSTLTLSKADYEKHKVYACEVTHQGLSSPVTKSFNRGEC | 6 | > 3 |
| BAP050-hum04 (antibody, human IgG4 S228P, kappa, V domains shown, humanized IgG4(S228P)/kappa, transient CHO supernatant) VH: EVQLVQSGAEVKKPGATVKISCKVSGFTLTNYGMNWVRQAPGQGLEWMGWINTDTGEPTYADDFKGRFVFSLDTSVSTAYLQICSLKAEDTAVYYCARNPPYYYGTNNAEAMDYWGQGTTVTVSS VL: DIQMTQSPSSLSASVGDRVTITCSSSQDISNYLNWYLQKPGQSPQLLIYYTSTLHLGIPDRFSGSGSGTDFTLTISRLEPEDFAVYYCQQYYNLPWTFGQGTKVEIKR | 8 | 2 |
| BAP050-hum03 (antibody, human IgG4 S228P, kappa, humanized IgG4(S228P)/kappa, transient CHO supernatant) heavy: not shown light: EIVLTQSPATLPVTLGQPASISCSSSQDISNYLNWYQQKPGQAPRLLIYYTSTLHLGVPSRFSGSGSGTDFTFTISSLEAEDAATYYCQQYYNLPWTFGQGTKVEIKRTVAAPSVFIFPPSDEQLKSGTASVVCLLNNFYPREAKVQWKVDNALQSGNSQESVTEQDSKDSTYSLSSTLTLSKADYEKHKVYACEVTHQGLSSPVTKSFNRGEC | 7 | 1 |

Other lines, results leading:

| Ranking, Binding data [1] | Ranking, Compet. data [2] | Binder |
| --- | --- | --- |
| 9 | 3 | BAP050-hum20 (antibody, human IgG4 S228P, kappa, V domains shown, humanized IgG4(S228P)/kappa, transient CHO supernatant) VH: QVQLVQSGAEVKKPGASVKVSCKASGFTLTNYGMNWVRQARGQRLEWIGWINTDTGEPTYADDFKGRFVFSLDTSVSTAYLQICSLKAEDTAVYYCARNPPYYYGTNNAEAMDYWGQGTTVTVSS VL: DIVMTQTPLSLPVTPGEPASISCSSSQDISNYLNWYQQKPGQAPRLLIYYTSTLHLGIPDRFSGSGSGTDFTLTISRLEPEDFAVYYCQQYYNLPWTFGQGTKVEIKR |
| 8 | > 3 | BAP050-hum07 (antibody, human IgG4 S228P, kappa, V domains shown, humanized IgG4(S228P)/kappa, transient CHO supernatant) VH: EVQLVQSGAEVKKPGATVKISCKVSGFTLTNYGMNWVRQAPGQGLEWMGWINTDTGEPTYADDFKGRFVFSLDTSVSTAYLQICSLKAEDTAVYYCARNPPYYYGTNNAEAMDYWGQGTTVTVSS VL: DIQMTQSPSSLSASVGDRVTITCSSSQDISNYLNWYLQKPGQSPQLLIYYTSTLHLGVPSRFSGSGSGTEFTLTISSLQPDDFATYYCQQYYNLPWTFGQGTKVEIKR |
| 9 | > 3 | BAP050-hum19 (antibody, human IgG4 S228P, kappa, humanized IgG4(S228P)/kappa, transient CHO supernatant) heavy: not shown light: EIVLTQSPDFQSVTPKEKVTITCSSSQDISNYLNWYQQKPGQAPRLLIYYTSTLHLGVPSRFSGSGSGTDFTFTISSLEAEDAATYYCQQYYNLPWTFGQGTKVEIKRTVAAPSVFIFPPSDEQLKSGTASVVCLLNNFYPREAKVQWKVDNALQSGNSQESVTEQDSKDSTYSLSSTLTLSKADYEKHKVYACEVTHQGLSSPVTKSFNRGEC |
